Experimental data taken from patent publication US20050100554A1 (published 2005).

T1: PTPN21 (human, UniProt Q16825 1-1174)
T1 construct: also called cbe_4260642
T1 sequence: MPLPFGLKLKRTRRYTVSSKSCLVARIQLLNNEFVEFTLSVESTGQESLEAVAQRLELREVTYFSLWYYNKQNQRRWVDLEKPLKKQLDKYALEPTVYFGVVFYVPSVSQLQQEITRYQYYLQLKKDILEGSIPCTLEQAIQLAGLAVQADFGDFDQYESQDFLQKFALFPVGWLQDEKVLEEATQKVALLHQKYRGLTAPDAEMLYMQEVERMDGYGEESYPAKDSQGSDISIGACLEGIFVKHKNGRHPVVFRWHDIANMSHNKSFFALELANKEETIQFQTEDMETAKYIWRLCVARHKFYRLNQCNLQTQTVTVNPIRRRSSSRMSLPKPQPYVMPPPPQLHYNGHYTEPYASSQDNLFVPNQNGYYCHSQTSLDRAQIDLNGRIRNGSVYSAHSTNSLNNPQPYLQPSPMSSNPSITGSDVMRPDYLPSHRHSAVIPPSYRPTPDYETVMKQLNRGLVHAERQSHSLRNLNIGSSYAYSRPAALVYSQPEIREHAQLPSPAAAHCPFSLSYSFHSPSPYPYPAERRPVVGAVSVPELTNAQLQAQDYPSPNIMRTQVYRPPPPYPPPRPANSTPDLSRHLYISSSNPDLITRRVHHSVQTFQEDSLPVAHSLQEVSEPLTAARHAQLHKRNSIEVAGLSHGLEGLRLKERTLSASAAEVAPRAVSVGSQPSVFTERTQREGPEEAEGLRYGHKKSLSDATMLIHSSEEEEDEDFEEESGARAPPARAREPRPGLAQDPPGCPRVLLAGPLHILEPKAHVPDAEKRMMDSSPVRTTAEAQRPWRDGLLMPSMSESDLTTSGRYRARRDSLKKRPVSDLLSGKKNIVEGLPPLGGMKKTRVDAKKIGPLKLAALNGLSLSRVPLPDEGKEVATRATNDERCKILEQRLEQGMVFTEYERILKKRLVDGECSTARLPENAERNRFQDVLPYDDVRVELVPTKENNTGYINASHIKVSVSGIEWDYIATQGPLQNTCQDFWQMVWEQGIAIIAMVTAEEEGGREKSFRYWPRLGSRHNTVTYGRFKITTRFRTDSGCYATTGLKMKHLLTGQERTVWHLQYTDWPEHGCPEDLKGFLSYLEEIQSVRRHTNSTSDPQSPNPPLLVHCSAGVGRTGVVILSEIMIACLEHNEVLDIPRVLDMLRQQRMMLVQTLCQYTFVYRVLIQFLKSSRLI

T2: PCDH1 (human, UniProt Q08174 58-1060)
T2 construct: also called cbe_4269156
T2 sequence: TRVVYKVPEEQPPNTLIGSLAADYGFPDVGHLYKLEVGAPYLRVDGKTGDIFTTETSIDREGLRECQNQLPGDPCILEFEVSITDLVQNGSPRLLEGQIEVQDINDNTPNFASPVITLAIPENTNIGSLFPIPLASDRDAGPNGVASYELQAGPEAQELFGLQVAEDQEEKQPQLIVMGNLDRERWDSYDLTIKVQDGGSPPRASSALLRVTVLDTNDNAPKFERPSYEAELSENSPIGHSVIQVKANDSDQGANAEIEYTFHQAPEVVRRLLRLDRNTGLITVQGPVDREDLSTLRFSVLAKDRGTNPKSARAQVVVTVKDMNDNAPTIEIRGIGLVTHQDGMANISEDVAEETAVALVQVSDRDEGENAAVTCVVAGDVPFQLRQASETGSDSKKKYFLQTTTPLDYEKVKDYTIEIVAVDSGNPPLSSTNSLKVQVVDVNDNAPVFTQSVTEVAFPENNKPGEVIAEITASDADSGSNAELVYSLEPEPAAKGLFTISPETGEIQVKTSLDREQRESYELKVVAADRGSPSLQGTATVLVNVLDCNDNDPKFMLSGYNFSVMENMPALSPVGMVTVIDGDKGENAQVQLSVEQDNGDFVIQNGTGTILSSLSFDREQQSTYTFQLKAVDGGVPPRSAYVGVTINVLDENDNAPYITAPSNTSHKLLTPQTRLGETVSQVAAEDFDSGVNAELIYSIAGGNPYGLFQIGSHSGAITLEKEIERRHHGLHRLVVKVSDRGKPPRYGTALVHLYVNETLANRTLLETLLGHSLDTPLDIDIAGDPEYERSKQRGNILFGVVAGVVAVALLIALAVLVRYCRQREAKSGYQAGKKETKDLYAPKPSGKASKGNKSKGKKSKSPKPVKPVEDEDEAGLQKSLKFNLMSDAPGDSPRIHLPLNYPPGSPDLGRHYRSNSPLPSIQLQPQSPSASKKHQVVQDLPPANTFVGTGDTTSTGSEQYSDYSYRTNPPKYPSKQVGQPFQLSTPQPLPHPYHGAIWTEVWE

T3: RABIF (human, UniProt P47224 1-123)
T3 construct: also called cbe_3472582
T3 sequence: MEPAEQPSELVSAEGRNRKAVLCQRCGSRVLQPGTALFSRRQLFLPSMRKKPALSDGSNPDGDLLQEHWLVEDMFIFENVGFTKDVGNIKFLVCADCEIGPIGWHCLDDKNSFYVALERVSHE

T4: PEST-containing nuclear protein (human, UniProt Q8WW12 2-178)
T4 construct: also called pcnp; PCNP
T4 sequence: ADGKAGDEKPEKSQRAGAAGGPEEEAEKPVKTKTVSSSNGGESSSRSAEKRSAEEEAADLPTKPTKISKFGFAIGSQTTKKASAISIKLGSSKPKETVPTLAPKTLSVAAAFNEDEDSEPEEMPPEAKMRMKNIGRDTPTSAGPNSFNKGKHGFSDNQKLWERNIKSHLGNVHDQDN

B1: Human papillomavirus 11 E7 (other)
chain: MHGRLVTLKDIVLDLQPPDPVGLHCYEQLEDSSEDEVDKVDKQDAQPLTQHYQILTCCCGCDSNVRLVVECTDGDIRQLQDLLLGTLNIVCPICAPKP
notes: also called HPV 11 E7; cbe_250834
B2: HPV 16 E1-E4 (other)
chain: MADPAAATKYPLLKLLGSTWPTTPPRPIPKPSPWAPKKHRRLSSDQDQSQTPETPATPLSCCTETQWTVLQSSLHLTAHTKDGLTVIVTLHP
notes: also called cbe_251059
B3: Human papillomavirus 11 E1 (other)
chain: MADDSGTENEGSGCTGWFMVEAIVEHTTGTQISEDEEEEVEDSGYDMVDFIDDRHITQNSVEAQALFNRQEADAHYATVQDLKRKYLGSPYVSPISNVANAVESEISPRLDAIKLTTQPKKVKRRLFETRELTDSGYGYSEVEAATQVEKHGDPENGGDGQERDTGRDIEGEGVEHREAEAVDDSTREHADTSGILELLKCKDIRSTLHGKFKDCFGLSFVDLIRPFKSDRTTCADWVVAGFGIHHSIADAFQKLIEPLSLYAHIQWLTNAWGMVLLVLIRFKVNKSRCTVARTLGTLLNIPENHMLIEPPKIQSGVRALYWFRTGISNASTVIGEAPEWITRQTVIEHSLADSQFKLTEMVQWAYDNDICEESEIAFEYAQRGDFDSNARAFLNSNMQAKYVKDCAIMCRHYKHAEMKKMSIKQWIKYRGTKVDSVGNWKPIVQFLRHQNIEFIPFLSKLKLWLHGTPKKNCIAIVGPPDTGKSCFCMSLIKFLGGTVISYVNSCSHFWLQPLTDAKVALLDDATQPCWTYMDTYMRNLLDGNPMSIDRKHRALTLIKCPPLLVTSNIDISKEEKYKYLHSRVTTFTFPNPFPFDRNGNAVYELSDANWKCFFERLSSSLDIEDSEDEEDGSNSQAFRCVPGSVVRTL
notes: also called HPV 11 E1; cbe_251663
B4: gbh_af252829 (other)
chain: MGKKQNRKTGNSKTQSTSPPPKERSSSPATDQSWMENDFDELREEGFRRSNYSELREDIQTKGKEVENFEKNLEECITRITNTEKCLKELMELKTKARELREECRSLRSQCDQLEERVSAMEDEMNEMKQEGKFREKRIKRNEQSLQEIWDYVKRPNLRLIGVPESDAENGTKLENTLQDIIQETFPNLARQANVQIQEIQRTPQRYSSRRATPRHIIVRFTKVEMKEKMLRAAREKGRVTLKGKPIRLTADLSAETLQARREWGPILNILKEKNFQPRISYPAKLSFISEGEIKYFTDKQMLTDFVTSRPALKELLKEALNMERNNRYQPLQNHAKM
notes: also called Homo sapiens chromosome 8 clone BAC 495D4 map 8q24; cbe_3454406
B5: hypothetical protein FLJ20343 (other)
chain: MAQPHTTSVPYFARSPAPPPPSRSGAPPQPPATLRPSRRRTRPPRPADRRDAPADCAYLWRILTPRRGRARRSDVGARHRACGRRDVLLSRQGPANPEGARRVVGGQERVWPAVRRGRGGSMFRLLSWSLGRGFLRAAGRRCRGCSARLLPGLAGGPGPEVQVPPSRVAPHGRGPGLLPLLAALAWFSRPAAAEEEEQQGADGAAAEDGADEAEAEIIQLLKRAKLSIMKDEPEEAELILHDALRLAYQTDNKKAITYTYDLMANLAFIRGQLENAEQLFKATMSYLLGGGMKQEDNAIIEISLKLASIYAAQNRQEFAVAGYEFCISTLEEKIEREKELAEDIMSVEEKANTHLLLGMCLDACARYLLFSKQPSQAQRMYEKALQISEEIQGERHPQTIVLMSDLATTLDAQGRFDEAYIYMQRASDLARQINHPELHMVLSNLAAVLMHRERYTQAKEIYQEALKQAKLKKDEISVQHIREELAELSKKSRPLTNSVKL
notes: also called cbe_3880186
B6: proteosome (prosome, macropain) subunit, beta type, 3 (other)
chain: SIMSYNGGAVMAMKGKNCVAIAADRRFGIQAQLVTTDFQKIFPMGDRLYIGLAGLATDVQTVAQRLKFRLNLYELKEGRQIKPYTLMSMVANLLYEKRFGPYYTEPVIAGLDPKTFKPFICSLDLIGCPMVTDDFVVSGTCAEQMYGMCESLWEPNMDPDHLFETISQAMLNAVDRDAVSGMGVIVHIIEKDKITTRTLKARMD
notes: also called PSMB3; cbe_3842044

Legend:
[1] = molecular target: T5, ITGB4 (human, UniProt P16144 28-1822); assay: Y2H; INT ID 49
T5 construct: also called cbe_4280774
T5 sequence (P16144 28-1822 limits assumed): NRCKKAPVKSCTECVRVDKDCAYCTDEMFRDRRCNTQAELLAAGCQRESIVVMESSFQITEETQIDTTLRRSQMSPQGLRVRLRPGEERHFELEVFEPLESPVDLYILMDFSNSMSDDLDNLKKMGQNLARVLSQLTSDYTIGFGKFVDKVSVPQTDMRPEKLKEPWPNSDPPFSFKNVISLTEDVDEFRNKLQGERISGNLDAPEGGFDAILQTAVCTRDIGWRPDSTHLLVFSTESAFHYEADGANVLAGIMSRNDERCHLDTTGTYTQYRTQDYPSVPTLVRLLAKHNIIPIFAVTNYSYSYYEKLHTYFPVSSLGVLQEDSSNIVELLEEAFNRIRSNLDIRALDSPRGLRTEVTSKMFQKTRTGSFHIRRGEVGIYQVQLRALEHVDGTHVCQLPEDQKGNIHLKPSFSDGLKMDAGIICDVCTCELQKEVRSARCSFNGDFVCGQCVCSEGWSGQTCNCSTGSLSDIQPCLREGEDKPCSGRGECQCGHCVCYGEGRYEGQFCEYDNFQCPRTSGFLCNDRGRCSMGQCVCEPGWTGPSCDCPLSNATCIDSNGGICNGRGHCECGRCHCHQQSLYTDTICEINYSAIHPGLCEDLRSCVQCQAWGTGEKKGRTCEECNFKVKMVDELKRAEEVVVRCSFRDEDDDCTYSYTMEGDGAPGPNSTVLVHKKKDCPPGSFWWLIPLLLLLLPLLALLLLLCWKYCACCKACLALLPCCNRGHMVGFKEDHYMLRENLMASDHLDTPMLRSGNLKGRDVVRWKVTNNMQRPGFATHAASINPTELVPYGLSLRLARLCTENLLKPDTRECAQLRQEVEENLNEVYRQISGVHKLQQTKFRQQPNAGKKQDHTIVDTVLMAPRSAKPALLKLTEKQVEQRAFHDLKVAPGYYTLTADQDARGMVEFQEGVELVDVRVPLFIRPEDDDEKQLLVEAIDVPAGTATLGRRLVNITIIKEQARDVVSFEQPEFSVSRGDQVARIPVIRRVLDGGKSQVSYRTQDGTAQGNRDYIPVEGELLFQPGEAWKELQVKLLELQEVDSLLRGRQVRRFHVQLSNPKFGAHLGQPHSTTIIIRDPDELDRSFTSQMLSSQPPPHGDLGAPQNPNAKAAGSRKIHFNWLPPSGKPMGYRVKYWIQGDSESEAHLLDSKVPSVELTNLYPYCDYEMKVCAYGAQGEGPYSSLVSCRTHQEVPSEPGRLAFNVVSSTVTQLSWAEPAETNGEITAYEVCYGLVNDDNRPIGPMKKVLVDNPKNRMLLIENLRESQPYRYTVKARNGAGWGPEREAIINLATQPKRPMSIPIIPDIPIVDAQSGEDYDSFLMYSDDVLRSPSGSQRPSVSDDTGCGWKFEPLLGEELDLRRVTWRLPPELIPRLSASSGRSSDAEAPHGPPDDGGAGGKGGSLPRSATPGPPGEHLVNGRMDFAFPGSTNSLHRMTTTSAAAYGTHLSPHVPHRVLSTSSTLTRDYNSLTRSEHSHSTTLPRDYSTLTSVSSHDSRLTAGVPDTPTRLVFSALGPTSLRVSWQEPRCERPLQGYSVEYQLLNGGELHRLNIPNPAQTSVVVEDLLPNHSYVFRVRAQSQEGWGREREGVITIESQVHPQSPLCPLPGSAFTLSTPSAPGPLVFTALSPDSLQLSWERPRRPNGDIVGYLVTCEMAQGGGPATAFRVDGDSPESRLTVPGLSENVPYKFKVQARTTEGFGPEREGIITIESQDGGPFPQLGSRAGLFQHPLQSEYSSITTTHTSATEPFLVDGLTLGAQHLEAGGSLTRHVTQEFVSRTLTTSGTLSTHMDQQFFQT

[2] = molecular target: T6, signal-induced proliferation-associated 1 like 1 (human, UniProt O43166 1-1804); assay: Y2H; INT ID 37
T6 construct: also called KIAA0440; cbe_3056756

[3] = molecular target: T1, PTPN21; assay: Y2H; INT ID 41
[4] = molecular target: T2, PCDH1; assay: Y2H; INT ID 142
[5] = molecular target: T3, RABIF; assay: Y2H; INT ID 139
[6] = molecular target: T4, PEST-containing nuclear protein; assay: Y2H; INT ID 140
[7] = molecular target: T7, DKFZP434I1735 protein (human, UniProt Q86XA9 451-2040); assay: Y2H; INT ID 50
T7 construct: also called cbe_3643627
T7 sequence (Q86XA9 451-2040 V880M limits assumed): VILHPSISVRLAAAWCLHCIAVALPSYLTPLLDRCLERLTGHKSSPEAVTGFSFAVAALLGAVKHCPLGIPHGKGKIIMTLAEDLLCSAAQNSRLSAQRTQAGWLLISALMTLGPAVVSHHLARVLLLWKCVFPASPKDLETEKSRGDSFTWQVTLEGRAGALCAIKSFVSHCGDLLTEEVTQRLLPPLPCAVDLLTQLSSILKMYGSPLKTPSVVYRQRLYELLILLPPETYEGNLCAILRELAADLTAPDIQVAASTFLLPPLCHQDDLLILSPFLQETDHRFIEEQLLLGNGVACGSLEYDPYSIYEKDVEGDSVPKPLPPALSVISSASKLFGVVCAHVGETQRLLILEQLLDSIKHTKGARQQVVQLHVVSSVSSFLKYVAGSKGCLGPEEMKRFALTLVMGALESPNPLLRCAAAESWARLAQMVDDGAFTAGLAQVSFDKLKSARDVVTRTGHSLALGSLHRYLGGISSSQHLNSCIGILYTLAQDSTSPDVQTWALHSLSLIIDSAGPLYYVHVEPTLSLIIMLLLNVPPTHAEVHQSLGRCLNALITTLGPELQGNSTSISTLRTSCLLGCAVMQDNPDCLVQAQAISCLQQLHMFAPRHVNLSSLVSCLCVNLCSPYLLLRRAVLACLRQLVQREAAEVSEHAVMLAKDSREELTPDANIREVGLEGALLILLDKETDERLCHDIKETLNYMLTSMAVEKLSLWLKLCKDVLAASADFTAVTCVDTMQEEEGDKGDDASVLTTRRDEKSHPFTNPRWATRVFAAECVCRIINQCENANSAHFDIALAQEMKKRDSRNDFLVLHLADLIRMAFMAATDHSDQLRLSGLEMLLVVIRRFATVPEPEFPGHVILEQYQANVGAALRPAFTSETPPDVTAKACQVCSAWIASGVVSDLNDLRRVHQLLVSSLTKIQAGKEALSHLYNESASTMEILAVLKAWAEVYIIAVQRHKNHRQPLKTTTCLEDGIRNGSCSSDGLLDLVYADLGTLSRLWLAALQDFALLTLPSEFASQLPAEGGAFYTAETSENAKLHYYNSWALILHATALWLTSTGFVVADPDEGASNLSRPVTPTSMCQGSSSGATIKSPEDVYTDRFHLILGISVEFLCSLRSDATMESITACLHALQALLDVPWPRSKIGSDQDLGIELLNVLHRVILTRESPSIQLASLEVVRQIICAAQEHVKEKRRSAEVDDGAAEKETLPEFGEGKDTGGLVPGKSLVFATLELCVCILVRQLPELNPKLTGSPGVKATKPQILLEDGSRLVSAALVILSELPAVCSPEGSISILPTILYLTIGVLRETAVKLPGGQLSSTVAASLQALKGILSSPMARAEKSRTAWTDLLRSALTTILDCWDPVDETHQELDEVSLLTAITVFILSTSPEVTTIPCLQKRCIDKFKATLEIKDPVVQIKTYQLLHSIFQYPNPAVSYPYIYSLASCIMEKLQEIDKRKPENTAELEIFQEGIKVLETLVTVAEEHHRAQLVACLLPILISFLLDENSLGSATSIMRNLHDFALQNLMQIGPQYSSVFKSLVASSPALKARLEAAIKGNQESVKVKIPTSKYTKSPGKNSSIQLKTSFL

[8] = molecular target: B1; assay: Y2H; INT ID 38
[9] = molecular target: B2; assay: Y2H; INT ID 141
[10] = molecular target: B3; assay: Y2H; INT ID 51

Which results are given for B1?
binding result [1]: binds; binding result [2]: binds; binding result [3]: binds

Which results are given for B2?
binding result [4]: binds; binding result [5]: binds; binding result [6]: binds

Does B3 bind [7]?
Result: binds

Does B4 bind [8]?
Result: binds

Does B5 bind [9]?
Result: binds

Does B6 bind [10]?
Result: binds
